In the nanobody polyreactivity screen of Harvey et al. (2022):

Assay: yeast display, Sf9 membrane polyspecificity reagent, FACS + sequencing; frameworks hold sequencing errors
Summary of the method: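 Nanobodies from a synthetic yeast display library (Saccharomyces cerevisiae BJ5465), induced 36–48 hours with galactose, were stained 1 hour at 4 °C with 10% biotinylated, detergent-solubilized Sf9 membrane reagent, enriched on streptavidin microbeads, then FACS-sorted. Anti-HA (expression) and streptavidin (reagent binding) fluorescence set low and high (top ~1%) gates. Polyreactivity labels come from the gate of origin. Genes were colony-PCR amplified, MiSeq 2 × 250 sequenced and filtered by CDR length.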

| Sequence | polyreactivity (PSR sort gate) |
| --- | --- |
| QVQLVESGGGLVQAGGSLRLSCAASGSIFYIYAMGWSRQAPGKERELVASITFSGDITYYADSVKGRFTISRDNAKNTVYLQMNSLKPEDTAVYYCNTRTPYWFKSDYWGQGTQVTVSS | low polyreactivity |
| QVQLEESGGGLVQAGGSLRLSCAASALTIEYNAKGSYRQAPAKERELVATISWSDSTRYADSVKGRLTISRDNAKSTVYLQMNSLKPEYTAVYDSNADVYWAWWEFDYWGQGTQVTVSS | low polyreactivity |
| QLQLVESAGGLVQAGGSLRLSCAASGIIFSYYAMGWYRKAPGKERELVAAISWSGGSTYYADSVKGRFTISRDNAKNTVYLQLNSLKPEDTAVYYCAADDYLAYEYWGQGTQVTVSS | high polyreactivity |
| QVQLVESGGCLVQAGGSLRLSCAASGSIFPWYAMGWYRQAPGKERELVADISYSGSGTYYADSVKGRFAISRDNGKNNVYLQMTSLKPEDSAVYYCNAQRAEWYPVGRYEYWGQGSQVTVSS | low polyreactivity |
| QVQLVESGGGLVQAGGILRLSCASSGNIFDRYAMGWYRQAPGKERELVAGITWSGGSTYYADSVKGRFTISRDNEKNTVYLQMNSLKPEDTAVYYCGQANYYWGQGTQVTVSA | low polyreactivity |
| QVQLVESGGGLVQAGGSLRLSCAASGRTFYYYAMGWYRQAPGKERELVARIRSGGSTNYADSVKGRFTISRDNAKNTVYLQMNSLKPEDTAVYYCNALGAKGYVKGFDYWGQGTQVTVSS | low polyreactivity |
| QVQLVETGGGLVQAGGSLRLSCAASGSIFWYYAMGWYRQAPGKERELVAAISAYGSSTYYADSVKGRFTISRDNAKNTVYLQMNSLKPEDTAVYYCAATYILYNDWLYHYFPEEYDYWGQGTQVTVSS | low polyreactivity |
| QVQLVESGGGLVQAGGSLRLSCAASGITFARYAMGWYRQAPGKERELVAAITRSGGSTNYADSVKGRFTISRDNAKNTVYLQMNSLKPEDTAVYYCAAAGYRFRFVYSRYEYWGQGTQVTVSS | high polyreactivity |
| QVQLVESGGGLVQAGGSLRLSCAASGSILPYYAMGWSRQAPGKERELVATITDGTDTYYADSVKGRFTISRDNAKNTVYLQMNSLKPEDTAVYYCKADGYVYYMHEDYWGQGTQVTVSS | low polyreactivity |
| QDQLLESGGGLVQAGGSLRLSCAASGFTFYRYAMGWYRQAPGKERELVASISKSCGSTYYADSVKGRFTISRDNAKNTVYLQMNSLKPEDTAVYYCAADVDYPYGYWGQGTQVTVSS | low polyreactivity |
| QVQLVESGGGLVQAGGSLRLSCAASGSIFVYYAMGWYRQAPGKERELVATINYNDGSTYYADSVKGRFTISRDNAKNTVYLQMNSLKPEDTAVYYCAADIVWSPESHPWYYVHYYYWGQGTQVTVSS | low polyreactivity |
| QVQLVESGGGLVQAGGSLRLICAASGITFRRYGMGWYRQAPGKERELVATITSSVGSRTYYADSVKGRLTISRDNAKNTVYLQMNSLKPEDTAVYYCAADHRVYDYEYWGQGTQVTVSS | low polyreactivity |
| QVQLVESGGGLVQAGGSLRLSCDASGFTFGRNAMGWYRQAPGKERELVAAISSSGGTTYYADSVKGRFTISRDNAKNTVYLQMNSLKPEDTAVYYCAAGYYYRYDYWGQGTQVTVSS | high polyreactivity |
| QVQLVESGVGLVQAGGSLRLSCAASGSTFSIYALGWYRQAPGKERELVAAISWDSDDTYYADSVNGRFTISRDNAKNTVYLQMNSLKPEDTAVYYCAADRLDRYYYWGQGTQVTVSS | low polyreactivity |
| QDQLVESGGGIVQAGGSLRLSCAASGFTFLYSAMGWYRQAPGKERELVAAINRSGGRTYYADSVKGRFTISRDNAKNTVYLQMNSLKPEDTAVYYCATDTYFRSSVVFRYDYWGQGTQVTVSS | high polyreactivity |
| QVQLVESRWRFVQAGGSLRLSCAASGSIFADYAMGWYRQAPGKERELVAAITFSGGSTYYADSVKGRFTISRDNAKNTVYLQMNSLKPEDTAVYYCASRWRYRYYSWGQGTQVTVSS | high polyreactivity |
| QVQLVESGGGLVQAGGSLRLSCAASGSTFLEYARGWSRQAPGKERELVATITGGGGTNYADSVKGRFTISRDNAKNTVYLQMNSLKPEETAVYYCAADYGGAYEYGYWGQGTQVTVSS | low polyreactivity |
| QVQLVESGGGLVQAGGSLRLSCAASGFIFLGNAMGWYRQAPGKERELVAAISSGGSTYADSVKGRFTISRDNAKNTVYLQMNSLKPEDTAVYYCNTEDYTQYEPGYYPPNYYWGQGTQVTVSS | low polyreactivity |
| QVQLVESGGGLVQAGGSLRLSCAASGRIFGVYAMGWYRQAPGKERELGAALSEGGGSTNYADSVKGRFTISRDNAKNTVYLQMNSLKPEDTAVDYCAATSRTGVRRYYSWGQGTQVTVSS | low polyreactivity |
| QVQLVESGGGLVQAGGSLRLSCAASGRTFQVYTMGWYRQAPGKERELVAAISRSGGSTYYADSVKGRFTISRDNAKNTVYLQMNSLKPEDTAVYYCAAVPGWLTSRYYYWGQGTQVTVSS | high polyreactivity |
| QVQLVESGGGLVQAGGSLRLSCAASGRIFWINAMGWYRQAPGKERELVAAITTDGGTTYYADSVKGRFTISRDNAKNTVYLQMNSLKPEDTAVYYCAADAAGQYWWQTYDYWGQGTQVTVSS | high polyreactivity |
| QVQLVESGGGLVQAGGSLRLSCAASGRIFSRYAMGWYRQAPGKERELVAAIASSGTTTYYADSVKGRFTISRDIAKNTVYLQMNSLKAEDTAVYYCATSAVRHIYWGQGTQVTVSS | high polyreactivity |

| Sequence | polyreactivity (PSR sort gate) |
| --- | --- |
| QVQLVESGGGLVQAGGSLRLSSAASGRIFYQYAMGWYRQAPGKERELVASISRSGTRTYYADSVKGRFTISRDNAKNTVYLQMISLKPEDTAVYYCAARGRASVERRGGYYYWGQGTQVTVSS | high polyreactivity |
| QVQLVESGGGLVQAGGSLRLSCAASGRTFYYYGMGWYRQAPGKERELVASITNGGNTNYADSVKGRFTISRDNAKNTVYLQMNSLKPEDTAVYYCAKDVPYWRPVVRYDYWGQGTQVTVSS | low polyreactivity |
| QVQLVESGGGLVQAGGSLRLSCAASGITFYGYAMGWYRQAPGKERELVARISSGGTTKYADSVKGRFTISRDNAKNTVYLQMNSLKPEDTAVYYCAVGGSWWYYGFYYWGQATQVTVSS | high polyreactivity |
| QVQLVESGGGLVQAGGSLRLSCAASGLIFYRYTMGWYRQAPGKERELVAAISWSGGRTYYADSVKGRFTISRDNAKNTVYLQMNSLKPEDTAVYYCNAVYYYTRASVPYDYWGQGTQVTVSS | high polyreactivity |
| QDQHVESGGGLDQAGGSLRLSCAASGRIFSYNTMGWYRQAPGQERELVAASSSSGGSTYYADSVKGRFTISRDNAKNTVYLQMNSLKPEDTAVYYCNAVGRFSTRREYWGQGTQVTVSS | high polyreactivity |
| QVQLVESGGGLVKAGGSLRLSCAASGFTFTIYAMGWYRQAPGKERELVAAITNSGDTNYADSVKGRFTISRDNAKNTVYLQMNSLKPEDTAVYYCAKAYYIGYFFNFGSWGQGTQVTVSS | low polyreactivity |
| QVQLVESGGGLVQEGGSLRLSCAASGRTFGYYVMGWYRQAPGKERELVAAISNTDSTYYADSVKGRFTISRDNAKNSVYLQMNSLKPEDTAVYYCDKDGRTVAYTWTRTHYYWGQGTQVTVSS | low polyreactivity |
| QVQLVESGGGLVQAGGSLRLSCAASGSIFSGYAMGWYRQAPGKERELVAAINWTGDSTYYADSVKGRFTISRDNAKNTVYLQMNSLKPEDTAVYYCAAIRRQKGLWDYYYWGQGSQVTVSS | low polyreactivity |
| QVQLVESGGGLVQAGGSLSLICAASGRIYYRYHMGWYRQAPGKERELVATISRSGGSTNYADSVKGRFTISRDNAKNTVYLQMNSLNPEYTAVYYCNALYLSTRSGDYWGQGTQVTVSS | high polyreactivity |
| QVQLVESGGGLVQAGGSLRLSCAASGRTIYQYAKGWYRPAPGKERELVAAISRGGSTNYADSLKGRFTISRDNAKNTVLLQLNSLKPEDTAVYDCASWYKCLSLKRLYERDYWGHGTQVTVSS | high polyreactivity |
| QVQLVESGGGLVQAGGSLRLSCAASVSTFISYAMGWYRQAPGKERELVAAISSSTGRTYYADSVKGRFTISRDNAKNTVYLQLNSLKPEDTAVFYCNAVHRYERDYWGQGTQVTVSS | high polyreactivity |
| QVQLVESGGGLVQAGGSLRLSCAASGRTFERNAMGWYRQAPGKERELVAAITWSGVSTYYADSVKGRFTISRDNAKNTVYLQMNSLKPEDTAVYYCAADWDWRFHRMNYWGQGTQVTVSS | low polyreactivity |
| QVQQQESGGGLVQAVGSLRLSCAASGTIIQLTVMGRYRQAPGKERELVASIDYGGNTNYADSVKGRFTISRDNAKNTVYLHMNSLKPEDTAVYYCAKESRPAEGDSGYDYWGQGTLVTVSS | low polyreactivity |
| QVQHVESGGGIVQAGGSLRLSCAASGRTYAINAMGSYRQAPGKEMELLASITTRDSSTYYADSVKGRFTISRDNAKNTVYLQMKSLIPDDTAVYYCAKVKLVTYLYRLFVYGSYYWGLGTQVTVSS | low polyreactivity |
| QVQLVESGGGLVQAGGSLRLSCAASGLTFTWYTMGWYRQAPGKERELVAAITSGGSTNYADSVKGSFTISRDNAKNTVYLQMNSLKPEDTAVYYCAASRTFYWWEYGYWGQGTQVTVSS | high polyreactivity |
| QDQHVESGGGLVQAGGSLRLSCAASGRTFGNYAMGWYRQAPGKERELVADITRRGGSTSYADSVKGRFTISRDNAKNTVYLQMNSLKPEDTAVYYCNKAADGSSHYDYWGQGTQVTVSS | low polyreactivity |
| QVQLVESGGGLVQAGGSLRLSCDASGSIFSQYAMGWDRQAPGKEWELVAAITWSGGSTYYADSVMGRFTFSRDNAKNTVYLQMNSLKPEDTEVYYCAATGYYYTRSSTWYRYYYWGQGTQVTVSS | high polyreactivity |
| QVHIVESGGGLVQAGGSLRLSCAASGINFGRNVMGWYRQPPGKERELVAAISWSGGRTYYADSVKGRFTISRDNAKNTVYFQIKSLITEDTAVYDCNARTGYYTGQYDYWGQGSQVTVSS | high polyreactivity |
| QVQLEESGGGLVQAGGSLRLSCPASGRTFHGYAMGSYRQAPGKERELVAAITGTGGRTYYADSVKGRFTISRDNAKNTVYLQMNSLKPEDTAVYYCAARPWIKSGYWGQGTQVTVSS | high polyreactivity |
| QVQLVESGGGLVQAGGSLRLSCAASGFIFQIYAMGWYRQAPGKERELVAAISSGGSTNYADSVKGRFTISRDNAKNTVYVQMNSMKPEDTAVYYCAAATHYWYFYSFKDKSGFRGYYWGQGTQVTVSS | high polyreactivity |
| QVQLVESGGGLVHAVGSLRLSCAASGFIFHEYAMGCYIQAPGKERELVAAISSGGGSTYYADSVKGRFTISRDNAKNTVYLQMNSLKPEDTAVYYCAADATAYSVLTRDYWGQGTQVTVSS | high polyreactivity |
